Tests used:
[1] = test system: ovarian cancer cells SKOV3; assay: CCK8 cell viability detection, SKOV3; assay type: cell-based, human; conditions: CCK8, 24 h treatment; read-out: IC50, inhibition of SKOV3 cells
Method: CCK8 cell viability detection: cell suspension was seeded in 96-well plates at a concentration of 5×10^4 cells/ml (100 μL/well). The plates were placed in the incubator for pre-culture (at 37° C., 5% CO2), and control and protein agents were added to each well 24 h after seeding. The plates were then placed in the incubator for 24 h, followed by addition of 10 μL CCK8 solution into each well and incubation of the plates in the incubator for 0.5-2 h before the absorbance measurement at 450 nm using a microplate reader.
Analysis of effect of GhJAZ1 protein on the cell cycle and apoptosis of tumor cells

GhTPL = assay: CO-IP experiment with GhTPL; assay type: binding, cotton
Method: (§1) Steps of method of CO-IP experiment: Non-denaturing lysate was added to 293T cell culture plate (Pricella, Cat. No.: CL-0005), and the cells were completely lysed at 4° C. The lysate was centrifuged at 12,000 rpm for 10 min and the supernatant was collected. The corresponding antibody was added to the obtained non-denatured protein solution, which was incubated overnight at 4° C. Pierce™ protein A/G magnetic agarose (Thermo Fisher Scientific, Inc.) were washed with lysis buffer, followed by addition pre-treated beads to the cell lysate, and incubation at room temperature for 2 hours. The mixture was centrifuged at 4° C., 2,500 rpm for 5 min with supernatant removed, and the agarose beads were washed 5 times with 1 ml of lysis buffer. An appropriate amount of protein loading buffer was added to the pellet, and the sample was incubated in water bath at 100° C. for 10 min. The band of interest was detected by Western blotting.

c-Myc-150aa = molecular target: T1, c-Myc-150aa (Homo sapiens, UniProt P01106); assay: Yeast two hybrid and LUC with c-Myc truncated to first 150 amino acids; assay type: binding
T1 construct: expressed in transfected cells
Description: […]

c-Myc = c-Myc (Homo sapiens, UniProt P01106); assay: CO-IP with c-Myc in HEK293 cells; assay type: binding; parameters: host or cells: HEK293 cells (method paragraph: 293T)
Method: as §1
Immunoprecipitation method (method of the experiment as Example 3) was used.

T1 sequence (P01106 1-150): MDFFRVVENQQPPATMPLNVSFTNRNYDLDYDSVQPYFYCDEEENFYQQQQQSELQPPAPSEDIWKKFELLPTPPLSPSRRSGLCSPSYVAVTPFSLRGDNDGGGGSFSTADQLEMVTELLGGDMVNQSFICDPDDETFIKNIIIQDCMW
Chain of c-Myc (P01106 whole entry): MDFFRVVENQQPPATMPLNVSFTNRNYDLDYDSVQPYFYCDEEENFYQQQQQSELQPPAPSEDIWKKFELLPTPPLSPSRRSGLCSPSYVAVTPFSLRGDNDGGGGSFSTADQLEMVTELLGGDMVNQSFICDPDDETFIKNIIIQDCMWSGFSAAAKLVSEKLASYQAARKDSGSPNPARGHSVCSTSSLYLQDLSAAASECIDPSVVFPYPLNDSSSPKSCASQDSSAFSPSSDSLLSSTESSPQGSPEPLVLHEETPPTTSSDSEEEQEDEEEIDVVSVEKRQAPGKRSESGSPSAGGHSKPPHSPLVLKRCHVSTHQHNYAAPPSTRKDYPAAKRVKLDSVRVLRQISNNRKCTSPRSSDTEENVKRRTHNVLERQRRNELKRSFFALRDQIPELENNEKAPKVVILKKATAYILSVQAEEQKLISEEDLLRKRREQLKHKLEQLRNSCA
Chain of GhTPL (as listed by the source): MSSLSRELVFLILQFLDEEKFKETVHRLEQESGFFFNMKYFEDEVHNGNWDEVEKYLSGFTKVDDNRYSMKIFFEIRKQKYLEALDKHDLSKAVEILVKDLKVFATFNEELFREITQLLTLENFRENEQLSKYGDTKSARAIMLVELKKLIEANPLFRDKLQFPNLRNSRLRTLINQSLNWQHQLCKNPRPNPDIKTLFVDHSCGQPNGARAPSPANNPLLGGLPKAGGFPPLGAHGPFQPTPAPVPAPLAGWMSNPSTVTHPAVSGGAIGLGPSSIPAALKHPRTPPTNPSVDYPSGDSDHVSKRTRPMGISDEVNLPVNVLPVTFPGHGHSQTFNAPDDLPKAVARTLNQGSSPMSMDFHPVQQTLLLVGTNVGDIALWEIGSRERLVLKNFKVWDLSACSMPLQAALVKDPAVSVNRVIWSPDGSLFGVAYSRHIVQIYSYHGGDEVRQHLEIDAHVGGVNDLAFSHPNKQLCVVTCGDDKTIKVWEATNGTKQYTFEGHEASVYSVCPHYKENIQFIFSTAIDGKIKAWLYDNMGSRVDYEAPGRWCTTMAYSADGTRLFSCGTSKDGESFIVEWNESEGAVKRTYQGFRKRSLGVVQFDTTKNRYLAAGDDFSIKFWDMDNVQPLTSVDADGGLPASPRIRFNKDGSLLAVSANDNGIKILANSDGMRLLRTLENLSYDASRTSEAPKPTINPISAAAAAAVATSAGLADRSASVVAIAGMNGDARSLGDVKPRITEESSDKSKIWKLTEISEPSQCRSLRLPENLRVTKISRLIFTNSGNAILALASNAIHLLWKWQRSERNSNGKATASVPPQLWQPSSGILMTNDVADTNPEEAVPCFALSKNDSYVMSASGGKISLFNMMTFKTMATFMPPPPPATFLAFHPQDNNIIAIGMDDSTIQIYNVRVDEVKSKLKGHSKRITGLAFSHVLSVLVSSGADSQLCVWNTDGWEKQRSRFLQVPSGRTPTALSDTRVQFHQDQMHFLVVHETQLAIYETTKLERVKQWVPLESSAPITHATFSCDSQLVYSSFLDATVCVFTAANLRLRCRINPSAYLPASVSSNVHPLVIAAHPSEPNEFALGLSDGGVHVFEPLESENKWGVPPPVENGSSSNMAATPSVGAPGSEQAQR

B1: GhJAZ1: cotton JAZ1 protein, gene number Gh_A05G0260, sequence SEQ ID No. 4; prokaryotically expressed with His tag, about 30 KD (protein)
chain: MSSCSESTAMKPARSPEKPSFAQTCNLLSQYLKEKGSFGDLSLGMTCNVEANGTPVVPPPTMNLFPLNDKSDDVCGRNGGNPKNLTSMDLFPQQAGLASKDDSPNKLEPQTAPMTIFYGGQVIVFNDFPANKAKEIMLLASNSSSQSNNSFNPIPFTSSIARSPIESSIGVPPTSKPVHPAQRAVPGDLPIARRASLHRFLEKRKDRITAKAPYQINNSAAAPSLSGDNKSWLGLAAQSP
modifications: His tag
notes: prokaryotically expressed with His tag, about 30 KD
With B1 the IC50 [1] was 784 nM, the “interaction with GhTPL” value (GhTPL) was “interacts” and the “interaction with first 150 amino acids truncated c-Myc” value (c-Myc-150aa) was “strong interactions”. The “interaction with c-Myc” value (c-Myc) was “interacted”.

Reference: US20240279288A1, “APPLICATION OF PLANT JAZ PROTEINS AND DERIVED POLYPEPTIDES IN PREVENTION AND TREATMENT OF HUMAN AND ANIMAL TUMORS” (ANYANG INSTITUTE OF SINO-COTTON INDUSTRY INNOVATION, priority 2021, published 2024)
